In patent US20230295310A1 (ABCELLERA BIOLOGICS, published 2023):

What was measured:
human CD3e/d = molecular target: T1, human CD3e/d (human, UniProt P07766 23-126; P04234 22-105); experiment: SPR (Carterra LSA), mAb on chip
T1 construct: Bought soluble protein; also called hCD3e/d; human CD3/ed (Sino CT038-H2508H)
Outline: (§1)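 Purified mAbs amine-coupled (EDC/S-NHS) at 10 μg/mL in 10 mM NaOAc pH 4.25 onto an HC-30M chip, with benchmark and negative-control mAbs; analyte flowed over the array. Double-referenced sensorgrams fitted globally to a 1:1 Langmuir model for ka, kd and KD.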

human CD3e/g = molecular target: T2, human CD3e/g (human, UniProt P07766 23-126; P09693 23-116); experiment: SPR (Carterra LSA), mAb on chip
T2 construct: Bought soluble protein; also called hCD3e/g; human CD3e/g (Acro CDD-C52W4)
T2 sequence (P07766 23-126, chain 1 of 2): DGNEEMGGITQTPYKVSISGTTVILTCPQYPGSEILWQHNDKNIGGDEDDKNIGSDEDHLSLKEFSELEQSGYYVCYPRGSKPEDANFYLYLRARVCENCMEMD
T2 sequence (P09693 23-116, chain 2 of 2): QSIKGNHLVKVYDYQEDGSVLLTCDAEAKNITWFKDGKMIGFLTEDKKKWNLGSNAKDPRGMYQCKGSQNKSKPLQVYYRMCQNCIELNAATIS
Outline: as §1

[1] = molecular target: T3, cynomolgus monkey CD3 expressed on cyno primary T cells (cynomolgus monkey, UniProt Q95LI5 22-198; Q95LI8 22-171; Q95LI7 23-181); experiment: flow cytometry, cyno primary T cells
T3 construct: whole, on cells; CD3 complex on purified cynomolgus monkey CD3 pan T cells; also called cyno CD3
T3 sequence (Q95LI5 22-198, chain 1 of 3): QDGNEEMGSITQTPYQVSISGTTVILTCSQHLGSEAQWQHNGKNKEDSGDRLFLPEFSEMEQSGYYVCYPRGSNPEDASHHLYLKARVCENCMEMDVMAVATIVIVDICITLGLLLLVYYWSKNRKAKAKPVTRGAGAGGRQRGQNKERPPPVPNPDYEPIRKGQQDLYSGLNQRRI
T3 sequence (Q95LI8 22-171, chain 2 of 3): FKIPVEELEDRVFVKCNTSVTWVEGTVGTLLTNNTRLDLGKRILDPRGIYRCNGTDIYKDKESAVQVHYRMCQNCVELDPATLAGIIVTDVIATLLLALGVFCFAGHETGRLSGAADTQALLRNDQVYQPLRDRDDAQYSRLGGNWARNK
T3 sequence (Q95LI7 23-181, chain 3 of 3): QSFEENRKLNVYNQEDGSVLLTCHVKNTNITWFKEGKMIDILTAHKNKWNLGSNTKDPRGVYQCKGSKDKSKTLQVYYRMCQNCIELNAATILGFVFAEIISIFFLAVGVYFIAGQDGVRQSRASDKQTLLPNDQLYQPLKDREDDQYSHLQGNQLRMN
Procedure: Purified antibodies were confirmed to bind CD3 expressed on cells using the CytoFLEX S or LX flow cytometers (Beckman Coulter). Antibodies were diluted to 25 nM in FACS buffer (PBS+2% FBS) and were incubated with CD3-expressing cells for 30 minutes at 4° C. […] The median fluorescence intensity of the binding signal for each antibody was normalized to the isotype control to obtain a fold over isotype value. An antibody with a fold over isotype (FOI) of ≥10 was considered to be positive for binding.

T1 sequence (P07766 23-126, chain 1 of 2): as the sequence (P07766 23-126, chain 1 of 2) above
T1 sequence (P04234 22-105, chain 2 of 2): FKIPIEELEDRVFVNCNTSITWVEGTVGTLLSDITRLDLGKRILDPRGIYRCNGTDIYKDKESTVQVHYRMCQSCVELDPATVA

| Kd (human CD3e/d) [nM] | Kd (human CD3e/g) [nM] | Binder | binding result [1] |
| --- | --- | --- | --- |
| 33.3 | 41 | mAb 90 (antibody, V domains shown, VH and VL only) VH: EVQLVESGGGLVQPGGSLKLSCAASGFTFSGSAMHWVRQASGKGLEWVGRIRTKPNSYATSYAASVKDRFTISRDDSKNTAYLQMNSLKTEDTAVYYCIRGELEPWGQGTLVTVSS VL: not shown | – |
| 17.1 | 10.6 | mAb 106 (antibody, V domains shown, VH and VL only) VH: QVQLVESGGGVVQPGRSLRLSCAASGFTFRSYGMHWVRQAPGKGLEWVAIIWYNGNKKDYVDSVKGRFTISRDNSKNTLYLQMNSLRAEDTALYYCARGPGYNWFDPWGQGTLVTVSS VL: DIQMTQSPPSLSASVGDRVTITCRASQRISSYLNWYQQKPGKAPKLLIYAASSLQSGVPSRFSGSGSGTDFTLTISSLQPEDFATYYCQQSDSFPLTFGGGTKVEII | – |
| 18.4 | 8.97 | mAb 110 (antibody, V domains shown, VH and VL only) VH: QVQLVESGGGVVQPGRSLRLSCAASGFTFRSYGMHWVRQAPGKGLEWVAIIWYNGNKKDYVDSVKGRFTISRDNSKNMLYLQMNSLRAEDTALYYCARGPGYNWFDPWGQGTLVTVSS VL: DIQMTQSPPSLSASVGDRVTITCRASQRISSYLNWYQQRPGKAPKLLIYAASSLQSGVPSRFSGSGSGTDFTLTISSLQPEDFATYYCQQTDSFPLTFGGGTKVEII | – |
| – | – | mAb 288 (antibody, V domains shown, VH/VL only) VH: EVQLLESGGNLGQPGGSLRLSCAVSGFTFSSYTMSWVRQAPGKGLEWVSAISGSGGRTYYADSVKGRFTISRDNSKNTLYLQMKSLRAEDTAVYYCAKKFSYYYYYMDVWGKGTTVTVSS VL: SYELTQPLSVSVALGQTARITCGGNNIGSKDVHWYQQKPGQAPVLVIYRDSNRPSGIPERFSGSNSGNTATLTISSAQAGDEADYYCQVWDSNTAVFGGGTQLTAL | no binding (tested: FOI <10 (FOI >=10 = positive); 25 nM) |
| 10.8 | 3.64 | mAb 49 (antibody, V domains shown, VH and VL only) VH: EVQLVESGGGLVPPGGSLRLSCVASGFTLRSYTMNWVRQAPGQGLEWISYISSTSRTIYYSDSVKGRFTISRDNAKNSLYLQVNSLRDEDTALYYCAREDYYDSSGFDCWGQGTLVTVSS VL: AIRMTQSPSSFSASTGDRVTITCRASQGIFNYLAWYQQKPGKAPKLLIYSTSTLQSGVPSRFSGSGSGTDFTLTIRGLQSEDLATYYCQQYYSFPRTFGQGTKVDIK | – |
| 19.6 | 7.44 | mAb 111 (antibody, V domains shown, VH and VL only) VH: EVQLVESGGVLVKTGGSLRLSCVASGFSFKKAWMNWVRQAPGKGLEWVGRIKRNSDGGAADYAAPVKDRFTLSRDDSKNTLYLQMNSLKTEDTAVYYCTTLDSSSWYVGYYYMDVWGKGTTVTVSS VL: DIHMTQSPSSVSASLGDRVTFTCRASQNINNWLAWYQQKPGKAPKLLIYTASSLQSGVPSRFSGSGSGTDFTLTISSLQPDDFATYYCQQAHSLPITFGQGTRLGIK | – |
| 26.4 | 6.62 | mAb 129 (antibody, V domains shown, VH and VL only) VH: EVQLVESGGDLVKTGGSLRLSCVASGFSFKKAWMNWVRQAPGKGLEWVGRIKRNTDGGATDYAAPVKDRFTLSRDDSKNTLYLQMNSLKTEDTAVYYCTTLDSSSWYVGYYYMDVWGKGTTVTVSS VL: DIHMTQSPSSVSASLGDRVTFTCRASQDINNWLAWYQQKPGKAPRLLIYTASSLQSGVPSRFSGSGSGTDFTLTISSLQPDDFATYYCQQAHSLPITFGQGTRLGIE | – |
| 56.1 | 16.6 | mAb 123 (antibody, V domains shown, VH and VL only) VH: DVQLVESGGGTVKTGGSLRLSCVASGFSFKKAWMNWVRQAPGKGLEWVGRIKKNSDDGTADYAAPVKGRFTISRDDSKRTLFLQMNSLQTEDTAVYYCTTLDSSSWFVGYYYMDVWGKGTTVTVSS VL: DIQMTQSPSSVSASVGDRVIITCRASQDINNWLAWYQQKPGKAPKLLIYTASSLQSGVPSRFSGSGSVSDFTLTIDSLQPEDFATYYCQQAHSLPITFGQGTRLEIK | – |
| 65 | 15.4 | mAb 127 (antibody, V domains shown, VH and VL only) VH: EVQLVESGGGLVKTGGSHRLSCVASGFSFKKAWMNWVRQAPGKGLEWVGRIKRNSDGGTTDYAAPVKGRFILSRDDSKNTLYLQMNSLKTEDTAVYYCTTLDSSSWYVGYYYMDVWGKGTTVTVSS VL: DIQMTQSPSSVSASVGDRVTITCRASQDINNWLAWYQQKPGKAPKILIYTASNLQSGVPSRFSGSGSGTDFTLTISTLQPEDFATYFCQQAHGLPITFGQGTRLEIK | – |
| 8.92 | 11.6 | mAb 99 (antibody, V domains shown, VH and VL only) VH: QGQLVESGGGVVQPGRSLRLSCAASGFTFRGFGMHWVRQAPGKGLEWVAIIYYDGKNKYYADSVKGRFTISRDNSKNTLYLQMNSLRAEDTAVYYCAKGGGYNWFDPWGQGTLVTVSS VL: DIQMTQSPSSLSASVGDRVTITCRASQSISTYLNWYQQKPGKAPKLLIYSASSLQSGVPSRFSGSGSGTDFTLTISNLQPEDFAIYYCQRSYSPPFTFGPGTKLDIR | – |
| 1.79 | 9.22 | mAb 95 (antibody, V domains shown, VH and VL only) VH: QAHLVESGGGVVQPGRSLRLSCSASGFTFSGYGMHWVRQAPGKGLEWVALIYFDGRNKYYADSVKGRFTISRDNSKNTLYLQMNSLRAEDTAVYYCARGGGYNWFDPWGQGTLVTVSS VL: DIQMTQSPSSLSASVGDRVTITCRASQSINNYLSWYQQKPGKAPKLLIYLASNLQSGVPSRFSGSGSGTDFTLTISSLQPEDFATYYCQLSYRSPFTFGPGTKVDVK | – |
| 20.5 | 25.5 | mAb 100 (antibody, V domains shown, VH and VL only) VH: QVQLVESGGGVVQPGRSLRLSCVASGFTFRGYGMHWVRQAPGKGLEWVAIIYYDGKNKYYADSVKGRFTISRDNSKNTLYLQMNSLRVEDTALYYCARGGGYNWFDPWGQGTLVTVSS VL: DIQMTQSPSSLSASVGDRVTITCRASQSISTYLNWYQQKPGKAPKLLIYTASSLQSGVPSRFSGSGSGTVFTLTISSLQPEDFAIYYCQRSYSPPFTFGPGTRLDIK | – |
| 16.5 | 17.8 | mAb 97 (antibody, V domains shown, VH and VL only) VH: QGQLVESGGGVVQPGRSLRLSCAASGFTFRGYGMHWVRQAPGKGLEWVAIIYYDGKNKYYADSVKGRFTISRDNSKNTLYLQMNNLRVEDTAVYYCARGGGYNWFDPWGQGTLVTVSS VL: DIQMTQSPSSLSASIGDRVTITCRASQSISNYLNWYQQKPGKAPKLLIYSASSLQSGVPSRFSGSGSGTDFTLTISNLQPEDFAIYYCQRSYSPPFTFGPGTKLDIR | – |
| 9.06 | 10.9 | mAb 101 (antibody, V domains shown, VH and VL only) VH: QGQLVESGGGVVQPGRSLRLSCAASGFTFRGFGMHWVRQAPGKGLEWVAIIYYDGKNKYYADSVKGRFTISRDNSKNMLYLQMNSLRAEDTAVYYCAKGGGYNWFDPWGQGTLVTVSS VL: DIQMTQSPSSLSASVGDRVTITCRASQSISTYLNWYQQKPGKAPKLLIYSASSLQSGVPSRFSGSGSGTDFTLTISNLQPEDFAIYYCQRSYSPPFTFGPGTKLDIR | – |
| 1.57 | 7.8 | mAb 94 (antibody, V domains shown, VH and VL only) VH: QVHLVESGGGVVQPGRSLRLSCSASGFTFSGYGMHWVRQAPGKGLEWVALIYFDGRNKYYADSVKGRFTISRDNSKNTLYLQMNSLRAEDTAVYYCARGGGYNWFDPWGQGTLVTVSS VL: DIQMTQSPSSLSASVGDRVTITCRASQSISNYLNWYQQKPGKAPKLLIYLASSLQSGVPSRFSGSGSGTDFTLTINSLQPEDFASYYCQLSYSSPFTFGPGTKVDVN | – |
| 47.8 | 35.8 | mAb 93 (antibody, V domains shown, VH and VL only) VH: QVQLVESGGGVVQPGRSLRLSCAASGFTFRGYGMHWVRQAPGKGLEWVAIIYYNGNNKYYADSVKGRFTISRDNSKNTLYLQMNSLRAEDTAVYYCARGGGYNWFDPWGQGTLVTVSS VL: DIQMTQSPSSLSASVGDRVTITCRASQSISNYLNWYQQEPGKAPKLLIYTASSLQSGVPSRFSGSGSGTAFTLTISSLQPEDFAIYYCQRSSSPPFTFGPGTKLDIK | – |
| 7.73 | 11.9 | mAb 96 (antibody, V domains shown, VH and VL only) VH: QAHLVESGGGVVQPGRSLRLSCSASGFTFSGYGMHWVRQAPGKGLEWVSLIYFDGRNKYYADSVKGRFTISRDNSKNTLYLQMNSLRAEDTAVYYCARGGGYNWFDPWGQGTLVTVSS VL: DIQMTQSPSSLSASVGDRVTITCRASQSINNYLSWYQQKPGKAPKLLIYLASNLQSGVPSRFSGNGSGTDFTLTISSLQPEDFATYYCQLSYRSPFTFGPGTKVDVK | – |
| 9.71 | 11.2 | mAb 98 (antibody, V domains shown, VH and VL only) VH: QVHLVESGGDVVQPGRSLRLSCSASGFTFSGYGMHWVRQAPGKGLEWVALIYFDGRNKYYADSVKGRFTISRDNSKNTLYLQMNSLRAEDTAVYYCARGGGYNWFDPWGQGTLVTVSS VL: DIQMTQSPSSLSASVGDRVTITCRASQSINNYLNWYQQKPGKAPKLLIYLASSLQSGVPSRFSGSGSGTDFTLTISSLQPEDLATYYCQLSYSSPFTFGPGTKVDVK | – |
| 283 | 1260 | mAb 78 (antibody, V domains shown, VH and VL only) VH: EVQLVESGGGLVQPGGSLRLSCAASGFTFSSYWMSWVRQAPGKGLEWVANIKQDGSEKYYVDSVKGRFTISRDNAKNSLYLQMNSLRAEDTAVYYCARDNSPSFYWYFDLWGRGTLVTVSS VL: DIQMTQSPSTLSASVGDRVTITCRASQSLSRWLAWYQQKPGKAPKLLIYKASSLESGVPSRFSGSGSGTEFTLTISSLQPDDFATYYCQQYYTYSRTFGQGTKVEIK | – |
